In IntAct's records for PubMed 10531343:

B1: Synaptotagmin-6 (Mus musculus), Q9R0N8 (parent)
chain: MSGVWGAGGPRCQAALAVLASLCRARPPPLGLDVETCRSFELQSPEQSPSAADSGTSVSLLAVVVIVCGVALVAVFLFLFWKLCWMPWRKKEASSPSSANPASETLQSPSSRGNMADKLKDPSALGFLEAAVKISHTSPDIPAEVQMSVKEHIMRHTKLQRQTTEPASSTRHTSFKRHLPRQMHVSSVDYGNELPPAAAEQPTSIGRIKPELYKQKSVDGDDAKSEAAKSCGKINFSLRYDYESETLIVRILKAFDLPAKDFCGSSDPYVKIYLLPDRKCKLQTRVHRKTLNPTFDENFHFPVPYEELADRKLHLSVFDFDRFSRHDMIGEVILDNLFEASDLSRETSIWKDIQYATSESVDLGEIMFSLCYLPTAGRLTLTVIKCRNLKAMDITGYSDPYVKVSLLCDGRRLKKKKTTIKKNTLNPIYNEAIIFDIPPENMDQVSLLISVMDYDRVGHNEIIGVCRVGINAEGLGRDHWNEMLAYPRKPIAHWHSLVEVKKSFKEGTPRL
partner: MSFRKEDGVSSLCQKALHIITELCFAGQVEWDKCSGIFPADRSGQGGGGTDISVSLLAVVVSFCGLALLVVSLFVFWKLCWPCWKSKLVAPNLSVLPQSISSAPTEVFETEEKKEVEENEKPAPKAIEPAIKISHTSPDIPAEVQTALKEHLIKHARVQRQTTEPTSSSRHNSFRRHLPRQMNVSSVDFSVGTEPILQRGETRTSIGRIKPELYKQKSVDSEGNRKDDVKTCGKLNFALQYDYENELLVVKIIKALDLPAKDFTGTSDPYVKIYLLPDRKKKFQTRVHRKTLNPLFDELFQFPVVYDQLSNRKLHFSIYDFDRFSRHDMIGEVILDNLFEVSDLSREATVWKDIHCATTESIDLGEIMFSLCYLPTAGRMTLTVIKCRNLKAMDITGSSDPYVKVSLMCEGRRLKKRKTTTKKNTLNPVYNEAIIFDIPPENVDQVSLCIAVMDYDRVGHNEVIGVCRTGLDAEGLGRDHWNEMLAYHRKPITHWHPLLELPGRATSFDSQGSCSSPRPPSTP
B2: Synaptotagmin-3 (Mus musculus), O35681 (parent)
chain: MSGDYEDDLCRRALILVSDLCARVRDADTNDRCQEFNELRIRGYPRGPDADISVSLLSVIVTFCGIVLLGVSLFVSWKLCWVPWRDKGGSAVGGGPLRKDLAPGVGLAGLVGGGGHHLGASLGGHPLLGGPHHHGHTAHHPPFAELLEPGGLGGSEPPEPSYLDMDSYPEAAVASVVAAGVKPSQTSPELPSEGGTGSGLLLLPPSGGGLPSAQSHQQVTSLAPTTRYPALPRPLTQQTLTTQADPSTEERPPALPLPLPGGEEKAKLIGQIKPELYQGTGPGGRRGGGSGEAGAPCGRISFALRYLYGSDHLVVRILQALDLPAKDSNGFSDPYVKIYLLPDRKKKFQTKVHRKTLNPIFNETFQFSVPLAELAQRKLHFSVYDFDRFSRHDLIGQVVLDNLLELAEQPPDRPLWRDILEGGSEKADLGELNFSLCYLPTAGRLTVTIIKASNLKAMDLTGFSDPYVKASLISEGRRLKKRKTSIKKNTLNPTYNEALVFDVAPESVENVGLSIAVVDYDCIGHNEVIGVCRVGPEAADPHGREHWAEMLANPRKPVEHWHQLVEEKTLSSFTKGGKGLSEKENSE
partner: B1 partner
B3: Synaptotagmin-10 (Mus musculus), Q9R0N4 (parent)
chain: B1 partner
partner: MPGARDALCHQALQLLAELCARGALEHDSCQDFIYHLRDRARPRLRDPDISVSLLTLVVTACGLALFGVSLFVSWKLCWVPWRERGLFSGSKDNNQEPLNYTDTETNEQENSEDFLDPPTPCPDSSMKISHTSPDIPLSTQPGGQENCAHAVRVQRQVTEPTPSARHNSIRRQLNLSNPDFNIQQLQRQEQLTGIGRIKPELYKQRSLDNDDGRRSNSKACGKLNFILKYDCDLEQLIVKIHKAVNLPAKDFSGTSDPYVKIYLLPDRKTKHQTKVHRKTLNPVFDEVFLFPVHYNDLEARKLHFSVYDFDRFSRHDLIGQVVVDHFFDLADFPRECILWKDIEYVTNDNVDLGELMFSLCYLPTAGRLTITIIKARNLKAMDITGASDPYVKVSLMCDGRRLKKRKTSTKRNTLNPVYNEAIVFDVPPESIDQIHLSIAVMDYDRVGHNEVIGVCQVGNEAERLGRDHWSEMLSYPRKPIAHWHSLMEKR
B4: Synaptotagmin-9 (Mus musculus), Q9R0N9 (parent)
chain: B3 partner
partner: B2 chain
B5: Synaptotagmin-6 (Mus musculus), Q9R0N8 (parent)
chain: B1 chain
partner: B2 chain
B6: Synaptotagmin-10 (Mus musculus), Q9R0N4 (parent)
chain: B1 partner
partner: B1 chain
B7: Synaptotagmin-6 (Mus musculus), Q9R0N8 (parent)
chain: B1 chain
partner: B3 partner
B8: Synaptotagmin-3 (Mus musculus), O35681 (parent)
chain: B2 chain
partner: B3 partner
B9: Synaptotagmin-9 (Mus musculus), Q9R0N9 (parent)
chain: B3 partner
partner: B1 partner
B10: Synaptotagmin-9 (Mus musculus), Q9R0N9 (parent)
chain: B3 partner
partner: B1 chain
B11: Synaptotagmin-10 (Mus musculus), Q9R0N4 (parent)
chain: B1 partner
partner: B2 chain
B12: Synaptotagmin-3 (Mus musculus), O35681 (parent)
chain: B2 chain
partner: B1 chain

Variants of: B1
Conditions: with syt10_mouse Syt10, Q9R0N4

Row | effect of a mutation on the interaction | Variant
1 | decreasing interaction | C12A

Variants of: B2
Conditions: with syt10_mouse Syt10, Q9R0N4

Row | effect of a mutation on the interaction | Variant
2 | decreasing interaction | C10A

Variants of: B3
Conditions: with syt9_mouse Syt9, Q9R0N9

Row | effect of a mutation on the interaction | Variant
3 | decreasing interaction | C13A

Variants of: B4
Conditions: with syt3_mouse Syt3, O35681

Row | effect of a mutation on the interaction | Variant
4 | decreasing interaction | C9A

Variants of: B5
Conditions: with syt3_mouse Syt3, O35681

Row | effect of a mutation on the interaction | Variant
5 | decreasing interaction | C12A

Variants of: B6
Conditions: with syt6_mouse Syt6, Q9R0N8

Row | effect of a mutation on the interaction | Variant
6 | decreasing interaction | C13A

Variants of: B7
Conditions: with syt9_mouse Syt9, Q9R0N9

Row | effect of a mutation on the interaction | Variant
7 | decreasing interaction | C12A

Variants of: B8
Conditions: with syt9_mouse Syt9, Q9R0N9

Row | effect of a mutation on the interaction | Variant
8 | decreasing interaction | C10A

Variants of: B9
Conditions: with syt10_mouse Syt10, Q9R0N4

Row | effect of a mutation on the interaction | Variant
9 | decreasing interaction | C9A

Variants of: B10
Conditions: with syt6_mouse Syt6, Q9R0N8

Row | effect of a mutation on the interaction | Variant
10 | decreasing interaction | C9A

Variants of: B11
Conditions: with syt3_mouse Syt3, O35681

Row | effect of a mutation on the interaction | Variant
11 | decreasing interaction | C13A

Variants of: B12
Conditions: with syt6_mouse Syt6, Q9R0N8

Row | effect of a mutation on the interaction | Variant
12 | decreasing interaction | C10A
